Test results: the DeepSol protein solubility set

Assay: soluble on expression in E. coli; label from the status in PepcDB or PDB records

Soluble on expression in E. coli, soluble:
MKGRDVVLGLLMQKELSGYDIKIVFEDVFTHFFDGSFGMIYPTLRQLENEGKIKKEVVMQEGKPNKKMYFITDEGREEFYQYMQTPVEKDVLRSDFLMRMYFGNYSDDVTIKKWIKDEIERKEAYIADLRLKYEKWRVGITFVEEISLDVGIASYSAQVETLKKKLEELEAKENNKTEE
MMKRNILAVIVPALLVAGTANAAEIYNKDGNKVDLYGKAVGLHYFSKGNGENSYGGNGDMTYARLGFKGETQINSDLTGYGQWEYNFQGNNSEGADAQTGNKTRLAFAGLKYADVGSFDYGRNYGVVYDALGYTDMLPEFGGDTAYSDDFFVGRVGGVATYRNSNFFGLVDGLNFAVQYLGKNERDTARRSNGDGVGGSISYEYEGFGIVGAYGAADRTNLQEAQPLGNGKKAEQWATGLKYDANNIYLAANYGETRNATPITNKFTNTSGFANKTQDVLLVAQYQFDFGLRPSIAYTKSKAKDVEGIGDVDLVNYFEVGATYYFNKNMSTYVDYIINQIDSDNKLGVGSDDTVAVGIVYQF
SATSKLQALWNHPAGPKTIHFWAPTFKWGISIANIADFQKPPENISYLQQIAVTCTGMIWCRCSTIITPKNWNLFSVNVAMAATGIYQLTRKIKYDYVSEAEAAVEIEG
GPGSTGASLGMMWKDKLNAMTKEEFTRYKRAGVMETDRKEARDYLKRGDGKTGLSVSRGTAKLAWMEERGYVELTGRVVDLGCGRGGWSYYAASRPHVMDVRAYTLGVGGHEVPRITESYGWNIVKFKSRVDIHTLPVERTDVIMCDVGESSPKWSVESERTIKILELLEKWKVKNPSADFVVKVLCPYSVEVMERLSVMQRKWGGGLVRNPYSRNSTHEMYFTSRAGGNIIGAVTACTERLLGRMARRDGPVVVPELNLGTGTR
MKIAIIGAGNMGGSIARGLAKGSLIADSDIIVSNPSAGKLEKLKEEFPGISTTLSNTEAATGADVVILAVKPWFVESVMRELKLKSKQTLVSVAAGISFEELAHFVIAPEMPMFRLIPNTAISELESMTLIAARNTNDEQNLFMLRLFNEMGMAMLIPEDKIAATTALTSCGIAYVLKYIQAAMQAGIEMGIRPKDAMEMVAQSVKGAAALILNNDTHPSVEIDKVTTPGGITIKGINELEHNGFTSAVIKAMKASK

Soluble on expression in E. coli, not soluble:
MISILHVAARVLELRPSCDKMKLYKLCYFSQGWHLAWTGRPLFNEELQAWKYGAVSPTLRQASGLRADDDRLVTQIWSGDSSQLIDYERSVVDTVVSFYGDLESFHLSDLSHGFAWSTVRGNLPPDASCSDVIPHSLIRREFVENAWGEAPTPNAPERLPSMALDALEQAADDVAAENAETLRLLAFI
MLSRNIGAVRGAHKAATTKPVEKVAKLGNGLTVGTIDSHKPIAHLVLAFRAGSRYEKANQAGLSHTIRNFVGRDTQEYFGNTVVWTLSQTGGVLKSFTSRDLFGVSLTIPRESTSVGLSVLGQVAGNPGFKPWEVEDVLPTMRADNGYRTAYDLVVDQIHKAAYRNGGLGNSIYAPCSKIGSICTSTLSSFAEQHFVTGNGVLFATNAVHDDLLLYGDNHAPIRSGNAASPSSSAYKGGEVRRDADSKYAHVIVAGEGAAGNNTKALATQAVLLTALGNSSPVKFNTGTTGVIAKAVGQNGSASAFQAVHADSGLAGVYLVVEGSQANQAVSNVVGALKSLKVADIEAVKKQAFNNALRASAHSDNFAIERASQLFQSQDNYIQQIPNVSASDVEVAAKKLTTKLSLASYGNVSEVPYVDTL
MGSDKIHHHHHHMSNRIDHAKAAGAFISKTEHVAFHDRRLWDLREKRDAQAHGIAEWETMRELASGIKEHTLSNLSTYLEQFAAAAEANGVTVHWAATAEEHNALVHQLMSERGMTTLVKSKSMLTDECKMREYLEPRGITVMETDLGERIQQLDHQDPSHMVVPAVHKLRADVAELFGRTIGTDPKNSDIHYLAESQRMNTRPYFVREKTAGMTGCNFAVAETGTVVVCTNEGNADLSANVPPLHIASIGIEKLIPKVSDLGVFIRMLSRSALGSPITQYTSHFRAPRKGTEMHFILVDHGRSERLAMEDFWYSLKCIRCGACMNTCPVYRRSGGLSYGGTYSGPIGAIINPTFDLKRYSALPFASTLNGSCTNVCPVKINIHEQIYKWRTVIAGHHEVPFVKQEVLKMAGRLLASPTLYRATVSSMGSALRRLPNFVLYNPLNIWGKQRELPEAPKLTFHAWYKKNRGADHDNA
MNIRNARPEDLMNMQHCNLLCLPENYQMKYYFYHGLSWPQLSYIAEDENGKIVGYVLAKMEEDPDDVPHGHITSLAVKRSHRRLGLAQKLMDQASRAMIENFNAKYVSLHVRKRSVKWSPNTMQMGRTPMP
